Measured values published in publication PMC9909325, “Crystal structure of the phosphorylated Arabidopsis MKK5 reveals activation mechanism of MAPK kinases” (Acta Biochimica et Biophysica Sinica, 2022).

T1: AtMKK5-KD (Arabidopsis thaliana, UniProt Q8RXG3)
T1 construct: gene MKK5; kinase domain, residues 62-335, N-terminal His6-tag, pET28b, E. coli BL21(DE3); phosphorylated at Ser66, Thr83, Thr108, Thr215, Ser221
T1 sequence (Q8RXG3 62-335): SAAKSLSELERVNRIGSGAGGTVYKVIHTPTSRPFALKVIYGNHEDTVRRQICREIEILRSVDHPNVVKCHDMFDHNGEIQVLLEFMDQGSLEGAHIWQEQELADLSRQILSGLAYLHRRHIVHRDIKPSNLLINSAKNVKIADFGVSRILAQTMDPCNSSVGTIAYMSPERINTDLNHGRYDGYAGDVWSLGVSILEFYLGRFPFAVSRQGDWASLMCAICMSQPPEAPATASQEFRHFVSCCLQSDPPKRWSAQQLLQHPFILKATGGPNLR


Columns and labels:
AtMKK5-KD = target: T1, AtMKK5-KD; test: PK/LDH-coupled NADH oxidation at […] nm (ATPase); format: biochemical; details: 1 mM ATP, 20 nM phosphorylated kinase domain; 10 mM MgCl2, pH 7.0, 25 °C
[1] = target: AtMPK6(K92M) (Arabidopsis thaliana) (UniProt Q39026)
Chain of AtMPK6(K92M) (Arabidopsis thaliana) (Q39026 whole entry K92M): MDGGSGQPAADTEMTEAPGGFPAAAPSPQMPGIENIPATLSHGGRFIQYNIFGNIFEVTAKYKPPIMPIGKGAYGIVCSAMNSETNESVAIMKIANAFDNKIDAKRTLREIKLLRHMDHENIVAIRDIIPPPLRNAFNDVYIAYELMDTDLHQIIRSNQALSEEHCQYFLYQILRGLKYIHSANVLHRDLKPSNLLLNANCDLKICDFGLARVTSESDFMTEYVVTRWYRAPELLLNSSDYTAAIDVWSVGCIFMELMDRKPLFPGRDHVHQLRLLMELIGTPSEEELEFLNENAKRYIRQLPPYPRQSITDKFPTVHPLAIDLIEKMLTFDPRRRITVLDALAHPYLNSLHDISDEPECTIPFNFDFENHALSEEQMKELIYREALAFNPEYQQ

purified protein = substrate: Nc1ncnc2c1ncn2[C@@H]1O[C@H](COP(=O)(O)OP(=O)(O)OP(=O)(O)O)[C@@H](O)[C@H]1O; test: purified protein; format: biochemical, Arabidopsis thaliana; details: no protein substrate, 10 mM MgCl2, 50 mM MOPS pH 7.0, 100 mM NaCl, 25 °C, phosphorylated enzyme 20 nM

| decrease of AtMPK6(K92M) phosphorylation activity against wild-type AtMKK5, coupled spectrophotometric assay (20 nM AtMKK5, 1 mM ATP, 1 μM AtMPK6(K92M)) (fold decrease) [1] | Molecule | other results |
| --- | --- | --- |
| – | Nc1ncnc2c1ncn2[C@@H]1O[C@H](COP(=O)(O)OP(=O)(O)OP(=O)(O)O)[C@@H](O)[C@H]1O [ATP] | PK/LDH-coupled NADH oxidation at 340 nm (ATPase) (AtMKK5-KD): examined their effects on the catalytic function of AtMKK5-KD |
| 25 | AtMKK5 RRKR4A (full length; Arg17, Arg19, Lys20 and Arg21 all replaced by Ala) (enzyme, phosphorylated at Ser/Thr residues (signals similar to the wild type; sites not stated)) MKPIQSPSGVASPMKNALAAAPDLSLPLPHRDVALAVPLPLPPPSSSSSAPASSSAISTNISAAKSLSELERVNRIGSGAGGTVYKVIHTPTSRPFALKVIYGNHEDTVRRQICREIEILRSVDHPNVVKCHDMFDHNGEIQVLLEFMDQGSLEGAHIWQEQELADLSRQILSGLAYLHRRHIVHRDIKPSNLLINSAKNVKIADFGVSRILAQTMDPCNSSVGTIAYMSPERINTDLNHGRYDGYAGDVWSLGVSILEFYLGRFPFAVSRQGDWASLMCAICMSQPPEAPATASQEFRHFVSCCLQSDPPKRWSAQQLLQHPFILKATGGPNLRQMLPPPRPLPSAS | – |
| 10 | AtMKK5 L26A (full length) (enzyme, phosphorylated at Ser/Thr residues (signals similar to the wild type; sites not stated)) MKPIQSPSGVASPMKNRLRKRPDLSAPLPHRDVALAVPLPLPPPSSSSSAPASSSAISTNISAAKSLSELERVNRIGSGAGGTVYKVIHTPTSRPFALKVIYGNHEDTVRRQICREIEILRSVDHPNVVKCHDMFDHNGEIQVLLEFMDQGSLEGAHIWQEQELADLSRQILSGLAYLHRRHIVHRDIKPSNLLINSAKNVKIADFGVSRILAQTMDPCNSSVGTIAYMSPERINTDLNHGRYDGYAGDVWSLGVSILEFYLGRFPFAVSRQGDWASLMCAICMSQPPEAPATASQEFRHFVSCCLQSDPPKRWSAQQLLQHPFILKATGGPNLRQMLPPPRPLPSAS | – |
| 10 | AtMKK5 L28A (full length) (enzyme, phosphorylated at Ser/Thr residues (signals similar to the wild type; sites not stated)) MKPIQSPSGVASPMKNRLRKRPDLSLPAPHRDVALAVPLPLPPPSSSSSAPASSSAISTNISAAKSLSELERVNRIGSGAGGTVYKVIHTPTSRPFALKVIYGNHEDTVRRQICREIEILRSVDHPNVVKCHDMFDHNGEIQVLLEFMDQGSLEGAHIWQEQELADLSRQILSGLAYLHRRHIVHRDIKPSNLLINSAKNVKIADFGVSRILAQTMDPCNSSVGTIAYMSPERINTDLNHGRYDGYAGDVWSLGVSILEFYLGRFPFAVSRQGDWASLMCAICMSQPPEAPATASQEFRHFVSCCLQSDPPKRWSAQQLLQHPFILKATGGPNLRQMLPPPRPLPSAS | – |
| – | AtMKK5 LLL3A (full length; Leu24, Leu26 and Leu28 all replaced by Ala) (enzyme, phosphorylated at Ser/Thr residues (signals similar to the wild type; sites not stated)) MKPIQSPSGVASPMKNRLRKRPDASAPAPHRDVALAVPLPLPPPSSSSSAPASSSAISTNISAAKSLSELERVNRIGSGAGGTVYKVIHTPTSRPFALKVIYGNHEDTVRRQICREIEILRSVDHPNVVKCHDMFDHNGEIQVLLEFMDQGSLEGAHIWQEQELADLSRQILSGLAYLHRRHIVHRDIKPSNLLINSAKNVKIADFGVSRILAQTMDPCNSSVGTIAYMSPERINTDLNHGRYDGYAGDVWSLGVSILEFYLGRFPFAVSRQGDWASLMCAICMSQPPEAPATASQEFRHFVSCCLQSDPPKRWSAQQLLQHPFILKATGGPNLRQMLPPPRPLPSAS | drop of the initial velocity of AtMPK6(K92M) phosphorylation against wild-type AtMKK5, coupled spectrophotometric assay (20 nM AtMKK5, 1 mM ATP, 1 μM AtMPK6(K92M)) (fold decrease) [1]: 90 |
| 3 | AtMKK5 R19A (full length) (enzyme, phosphorylated at Ser/Thr residues (signals similar to the wild type; sites not stated)) MKPIQSPSGVASPMKNRLAKRPDLSLPLPHRDVALAVPLPLPPPSSSSSAPASSSAISTNISAAKSLSELERVNRIGSGAGGTVYKVIHTPTSRPFALKVIYGNHEDTVRRQICREIEILRSVDHPNVVKCHDMFDHNGEIQVLLEFMDQGSLEGAHIWQEQELADLSRQILSGLAYLHRRHIVHRDIKPSNLLINSAKNVKIADFGVSRILAQTMDPCNSSVGTIAYMSPERINTDLNHGRYDGYAGDVWSLGVSILEFYLGRFPFAVSRQGDWASLMCAICMSQPPEAPATASQEFRHFVSCCLQSDPPKRWSAQQLLQHPFILKATGGPNLRQMLPPPRPLPSAS | – |
| 10 | AtMKK5 L24A (full length) (enzyme, phosphorylated at Ser/Thr residues (signals similar to the wild type; sites not stated)) MKPIQSPSGVASPMKNRLRKRPDASLPLPHRDVALAVPLPLPPPSSSSSAPASSSAISTNISAAKSLSELERVNRIGSGAGGTVYKVIHTPTSRPFALKVIYGNHEDTVRRQICREIEILRSVDHPNVVKCHDMFDHNGEIQVLLEFMDQGSLEGAHIWQEQELADLSRQILSGLAYLHRRHIVHRDIKPSNLLINSAKNVKIADFGVSRILAQTMDPCNSSVGTIAYMSPERINTDLNHGRYDGYAGDVWSLGVSILEFYLGRFPFAVSRQGDWASLMCAICMSQPPEAPATASQEFRHFVSCCLQSDPPKRWSAQQLLQHPFILKATGGPNLRQMLPPPRPLPSAS | – |
| – | AtMKK5 (full-length, phosphorylated; p-AtMKK5) (Arabidopsis thaliana) (protein, full-length (348 residues), N-terminal His6-tag, pET28b, E. coli BL21(DE3); phosphorylated at Ser/Thr as purified) MKPIQSPSGVASPMKNRLRKRPDLSLPLPHRDVALAVPLPLPPPSSSSSAPASSSAISTNISAAKSLSELERVNRIGSGAGGTVYKVIHTPTSRPFALKVIYGNHEDTVRRQICREIEILRSVDHPNVVKCHDMFDHNGEIQVLLEFMDQGSLEGAHIWQEQELADLSRQILSGLAYLHRRHIVHRDIKPSNLLINSAKNVKIADFGVSRILAQTMDPCNSSVGTIAYMSPERINTDLNHGRYDGYAGDVWSLGVSILEFYLGRFPFAVSRQGDWASLMCAICMSQPPEAPATASQEFRHFVSCCLQSDPPKRWSAQQLLQHPFILKATGGPNLRQMLPPPRPLPSAS | Km (purified protein): 96.2 ± 3.5 µM; kcat (purified protein): 1.96 ± 0.02 s⁻¹ |
| 3 | AtMKK5 K20A (full length) (enzyme, phosphorylated at Ser/Thr residues (signals similar to the wild type; sites not stated)) MKPIQSPSGVASPMKNRLRARPDLSLPLPHRDVALAVPLPLPPPSSSSSAPASSSAISTNISAAKSLSELERVNRIGSGAGGTVYKVIHTPTSRPFALKVIYGNHEDTVRRQICREIEILRSVDHPNVVKCHDMFDHNGEIQVLLEFMDQGSLEGAHIWQEQELADLSRQILSGLAYLHRRHIVHRDIKPSNLLINSAKNVKIADFGVSRILAQTMDPCNSSVGTIAYMSPERINTDLNHGRYDGYAGDVWSLGVSILEFYLGRFPFAVSRQGDWASLMCAICMSQPPEAPATASQEFRHFVSCCLQSDPPKRWSAQQLLQHPFILKATGGPNLRQMLPPPRPLPSAS | – |
| 3 | AtMKK5 R21A (full length) (enzyme, phosphorylated at Ser/Thr residues (signals similar to the wild type; sites not stated)) MKPIQSPSGVASPMKNRLRKAPDLSLPLPHRDVALAVPLPLPPPSSSSSAPASSSAISTNISAAKSLSELERVNRIGSGAGGTVYKVIHTPTSRPFALKVIYGNHEDTVRRQICREIEILRSVDHPNVVKCHDMFDHNGEIQVLLEFMDQGSLEGAHIWQEQELADLSRQILSGLAYLHRRHIVHRDIKPSNLLINSAKNVKIADFGVSRILAQTMDPCNSSVGTIAYMSPERINTDLNHGRYDGYAGDVWSLGVSILEFYLGRFPFAVSRQGDWASLMCAICMSQPPEAPATASQEFRHFVSCCLQSDPPKRWSAQQLLQHPFILKATGGPNLRQMLPPPRPLPSAS | – |
